Legend:
[1] = test system: Cav1.2 and Cav1.3; conditions: cited from earlier work
Description: Despite the importance of dissecting the physiopathological roles of Cav1.2 and Cav1.3 channels in cardiac myocytes and neuronal cells, no selective pharmacological tool is currently available. […] Both distinct and complementary functions for Cav1.2 and Cav1.3 have been proposed in the central nervous system. For example, Cav1.2 is involved in hippocampal firing, spatial memory and LTP[52], as well as in the myelinisation process.

[2] = test system: SAN myocytes from Wild-Type mice; assay: Spontaneous action potentials, perforated patch-clamp, SAN pacemaker myocytes; assay type: cell-based, mouse; conditions: nifedipine (in Table 1 only 3 µM together with Cas)
Procedure: (§1) Hearts from Wild-Type and Cav1.3^−/− mice were removed under general anesthesia consisting of 0.01 mg/g xylazine (2% Rompun; Bayer AG) and 0.1 mg/g ketamine (Imalgène;Merial) and immersed in a pre-warmed (36 °C) Tyrode solution containing (mM): 140 NaCl, 5.4 KCl, 1 MgCl2, 1.8 CaCl2, 5.5 D-glucose, and 5 Hepes (adjusted to pH 7.4 with NaOH). […] SAN tissue was excised and transferred into a low-Ca^2+ solution containing (mM): 140 NaCl, 5.4 KCl, 0.5 MgCl2, 0.2 CaCl2, 1.2 KH2PO4, 50 taurine, 5.5 D-glucose, 1 mg/mL BSA, and 5 Hepes–NaOH (adjusted to pH 6.9 with NaOH) for 5 min. Then, enzymatic digestion was carried out for 20-25 min at 36 °C in the low-Ca^2+ solution containing LiberaseTH Research Grade (0.15 mg/mL; Roche, Mannheim, Germany) and elastase (0.5 mg/mL; Worthington, Lakewood, NJ, USA). Digestion was stopped by washing the SAN in a “Kraftbrühe” (KB) medium containing (mM) 100 K-glutamate, 10 K-aspartate, 25 KCl, 10 KH2PO4, 2 MgSO4, 20 taurine, 5 creatine, 0.5 EGTA, 20 D-glucose, 5 Hepes, and 1 mg/mL BSA (adjusted to pH 7.2 with KOH). Single SAN cells were then dissociated from the SAN tissue by manual agitation using a flame-forged Pasteur’s pipette. To recover the automaticity of the SAN cells, Ca^2+ was gradually reintroduced in the cell’s storage solution to a final concentration of 1.8 mM. SAN cells were then left to rest for 1 h before recordings.
(§2) For patch-clamp recordings of SAN myocytes, cells were harvested in custom-made chambers with glass bottoms for cell attachment. Cells were then super-fused with Tyrode’s solution warmed at 36 °C before recording. Action potentials and ionic currents were recorded using an Axon multi-clamp patch-clamp 700B amplifier. Voltage-gated L-type Ca^2+ currents (ICaL) were recorded using standard whole cell patch-clamp configuration. For recording ICaL, we used an extracellular recording solution contained (mM): 135 tetraethylammonium chloride (TEA-Cl), 10 4-aminopyridine (4-AP), 1 MgCl2, 0.03 tetrodotoxin (TTX), 1 g/L Glucose, 2 CaCl2, 10 Hepes, (adjusted to pH = 7.2 with TEAOH). […] Pacemaker activity was recorded by the perforated patch-clamp technique using escin (40 µg/ml). For recording cell automaticity glass pipettes were filled with the intracellular solution contained (mM): 80 K-Aspartate, 50 KCl, 1 MgCl2, 5 HEPES, 2 CaCl2, 5 EGTA, 3 ATP-Na+ salt; pH was adjusted to 7.2 with KOH. Escin was dissolved in sterile H2O and added to the intracellular solution right before each experiment.
We used an extracellular recording solution (Tyrode’s based) contained (mM): 140 NaCl, 5.4 KCl, 1 MgCl2, 1.8 CaCl2, 5 HEPES, 5.5 D-Glucose; pH was set to 7.4 with NaOH. AP parameters have been calculated as reported in Baudot et al.[10]. Data were analyzed using pCLAMP9 (Molecular Devices) and GraphPad Prism (GraphPad) software.
(§3) In all experiments of cellular electrophysiology, we employed synthetized analog of Cas, commercially available at Latoxan (ID: L8109). The native peptide was purified from the venom of Dendroaspis polylepis purchased from Latoxan, as previoulsly described. The pure peptide was obtained after gel filtration, cation exchange and C18 reversed phase chromatography. Its measured molecular mass (7036.26 Da average) was in accordance with the mass calculated from sequence data (7036.22 Da).

[3] = test system: total ICaL (ICav1.2+ICav1.3) in SAN myocytes from wild-type mice; assay: ICaL, patch clamp, SAN myocytes from wild-type mice; assay type: cell-based, mouse; conditions: nifedipine 3 µM after Cas 1 µM; holding −55 mV
Procedure: as §1, §2, §3

[4] = test system: Cav1.2 (ICav1.2) in isolated adult mouse ventricular myocytes; assay type: cell-based; conditions: L-calchin 5 µM; preliminary; n=7/N=2
[5] = test system: calcium channel in rabbit cardiac myocytes; conditions: reduction of calcium channel amplitude; cited from earlier work
Description: (§4) A common short peptide between two Prolines at position 42 and 47 (PTAMWP) was predicted as the binding site for Cas and FS2 by Kini and co-workers[49]. […] Similar to Cas, block by L-calchin had no ef ...

[6] = test system: isolated rat hearts; conditions: cited from earlier work
Description: as §4

[7] = target: native mouse Cav1.2 L-type calcium channel in cardiac myocytes (mouse (endogenous in cardiac myocytes)) (UniProt Q01815)
native mouse Cav1.2 L-type calcium channel in cardiac myocytes (mouse (endogenous in cardiac myocytes)), sequence (Q01815 whole entry): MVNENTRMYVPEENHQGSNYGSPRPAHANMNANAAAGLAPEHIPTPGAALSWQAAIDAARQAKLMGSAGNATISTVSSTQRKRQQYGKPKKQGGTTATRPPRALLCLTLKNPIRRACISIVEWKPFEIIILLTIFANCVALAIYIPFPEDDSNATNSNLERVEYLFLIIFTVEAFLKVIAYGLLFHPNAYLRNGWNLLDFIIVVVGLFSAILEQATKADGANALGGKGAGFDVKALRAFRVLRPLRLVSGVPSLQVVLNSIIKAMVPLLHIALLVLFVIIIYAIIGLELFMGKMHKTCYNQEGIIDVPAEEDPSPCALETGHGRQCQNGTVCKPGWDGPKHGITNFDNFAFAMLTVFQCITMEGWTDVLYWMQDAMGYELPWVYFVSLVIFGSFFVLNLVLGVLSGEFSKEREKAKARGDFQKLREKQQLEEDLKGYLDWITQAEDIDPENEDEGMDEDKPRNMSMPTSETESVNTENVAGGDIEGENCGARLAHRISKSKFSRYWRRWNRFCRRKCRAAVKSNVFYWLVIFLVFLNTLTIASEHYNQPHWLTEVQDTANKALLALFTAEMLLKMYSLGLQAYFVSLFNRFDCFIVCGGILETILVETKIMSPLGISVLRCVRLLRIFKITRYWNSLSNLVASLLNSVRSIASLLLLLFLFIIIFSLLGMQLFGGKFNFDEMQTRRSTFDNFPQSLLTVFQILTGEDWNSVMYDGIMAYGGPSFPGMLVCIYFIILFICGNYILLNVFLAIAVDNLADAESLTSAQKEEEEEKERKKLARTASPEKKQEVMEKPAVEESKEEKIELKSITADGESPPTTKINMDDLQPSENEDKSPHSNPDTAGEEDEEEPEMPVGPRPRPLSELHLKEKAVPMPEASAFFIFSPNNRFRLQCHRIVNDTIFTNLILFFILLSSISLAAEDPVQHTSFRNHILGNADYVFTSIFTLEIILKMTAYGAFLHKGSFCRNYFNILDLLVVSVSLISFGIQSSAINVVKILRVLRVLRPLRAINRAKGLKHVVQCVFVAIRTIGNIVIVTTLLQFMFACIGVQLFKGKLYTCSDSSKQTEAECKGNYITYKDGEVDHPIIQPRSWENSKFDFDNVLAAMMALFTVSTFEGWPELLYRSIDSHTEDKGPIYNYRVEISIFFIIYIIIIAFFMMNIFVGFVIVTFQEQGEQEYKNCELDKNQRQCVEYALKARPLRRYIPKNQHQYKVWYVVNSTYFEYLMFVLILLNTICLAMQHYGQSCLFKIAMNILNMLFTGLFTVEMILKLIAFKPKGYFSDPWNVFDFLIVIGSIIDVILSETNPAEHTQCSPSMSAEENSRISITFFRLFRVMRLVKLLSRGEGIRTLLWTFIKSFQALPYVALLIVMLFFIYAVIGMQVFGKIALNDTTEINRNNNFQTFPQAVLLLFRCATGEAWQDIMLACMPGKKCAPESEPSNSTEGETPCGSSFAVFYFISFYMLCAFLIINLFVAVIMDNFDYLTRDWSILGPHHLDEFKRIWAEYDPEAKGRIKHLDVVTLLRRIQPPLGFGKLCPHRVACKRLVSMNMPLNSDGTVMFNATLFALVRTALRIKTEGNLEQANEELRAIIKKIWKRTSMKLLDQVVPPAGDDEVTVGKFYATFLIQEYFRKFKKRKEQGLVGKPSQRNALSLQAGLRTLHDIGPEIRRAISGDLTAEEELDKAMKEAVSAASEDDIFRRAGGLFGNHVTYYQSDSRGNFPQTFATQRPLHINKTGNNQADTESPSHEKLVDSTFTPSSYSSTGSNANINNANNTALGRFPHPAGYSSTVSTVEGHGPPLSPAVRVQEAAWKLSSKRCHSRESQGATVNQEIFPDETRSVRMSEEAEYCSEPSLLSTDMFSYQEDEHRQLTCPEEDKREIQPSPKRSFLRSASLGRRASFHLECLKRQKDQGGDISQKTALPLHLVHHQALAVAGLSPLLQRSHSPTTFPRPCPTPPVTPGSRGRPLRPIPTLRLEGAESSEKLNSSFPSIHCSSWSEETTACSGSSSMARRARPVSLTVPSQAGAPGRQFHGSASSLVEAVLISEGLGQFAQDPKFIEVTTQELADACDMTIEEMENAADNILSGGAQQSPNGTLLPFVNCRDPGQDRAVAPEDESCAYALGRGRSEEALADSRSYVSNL

[8] = target: recombinant Cav1.2 (α1C) L-type calcium channel, Cav1.2-GFP (UniProt Q13936)
recombinant Cav1.2 (α1C) L-type calcium channel, Cav1.2-GFP, sequence (Q13936 other isoform, or with tags, fused parts or gaps): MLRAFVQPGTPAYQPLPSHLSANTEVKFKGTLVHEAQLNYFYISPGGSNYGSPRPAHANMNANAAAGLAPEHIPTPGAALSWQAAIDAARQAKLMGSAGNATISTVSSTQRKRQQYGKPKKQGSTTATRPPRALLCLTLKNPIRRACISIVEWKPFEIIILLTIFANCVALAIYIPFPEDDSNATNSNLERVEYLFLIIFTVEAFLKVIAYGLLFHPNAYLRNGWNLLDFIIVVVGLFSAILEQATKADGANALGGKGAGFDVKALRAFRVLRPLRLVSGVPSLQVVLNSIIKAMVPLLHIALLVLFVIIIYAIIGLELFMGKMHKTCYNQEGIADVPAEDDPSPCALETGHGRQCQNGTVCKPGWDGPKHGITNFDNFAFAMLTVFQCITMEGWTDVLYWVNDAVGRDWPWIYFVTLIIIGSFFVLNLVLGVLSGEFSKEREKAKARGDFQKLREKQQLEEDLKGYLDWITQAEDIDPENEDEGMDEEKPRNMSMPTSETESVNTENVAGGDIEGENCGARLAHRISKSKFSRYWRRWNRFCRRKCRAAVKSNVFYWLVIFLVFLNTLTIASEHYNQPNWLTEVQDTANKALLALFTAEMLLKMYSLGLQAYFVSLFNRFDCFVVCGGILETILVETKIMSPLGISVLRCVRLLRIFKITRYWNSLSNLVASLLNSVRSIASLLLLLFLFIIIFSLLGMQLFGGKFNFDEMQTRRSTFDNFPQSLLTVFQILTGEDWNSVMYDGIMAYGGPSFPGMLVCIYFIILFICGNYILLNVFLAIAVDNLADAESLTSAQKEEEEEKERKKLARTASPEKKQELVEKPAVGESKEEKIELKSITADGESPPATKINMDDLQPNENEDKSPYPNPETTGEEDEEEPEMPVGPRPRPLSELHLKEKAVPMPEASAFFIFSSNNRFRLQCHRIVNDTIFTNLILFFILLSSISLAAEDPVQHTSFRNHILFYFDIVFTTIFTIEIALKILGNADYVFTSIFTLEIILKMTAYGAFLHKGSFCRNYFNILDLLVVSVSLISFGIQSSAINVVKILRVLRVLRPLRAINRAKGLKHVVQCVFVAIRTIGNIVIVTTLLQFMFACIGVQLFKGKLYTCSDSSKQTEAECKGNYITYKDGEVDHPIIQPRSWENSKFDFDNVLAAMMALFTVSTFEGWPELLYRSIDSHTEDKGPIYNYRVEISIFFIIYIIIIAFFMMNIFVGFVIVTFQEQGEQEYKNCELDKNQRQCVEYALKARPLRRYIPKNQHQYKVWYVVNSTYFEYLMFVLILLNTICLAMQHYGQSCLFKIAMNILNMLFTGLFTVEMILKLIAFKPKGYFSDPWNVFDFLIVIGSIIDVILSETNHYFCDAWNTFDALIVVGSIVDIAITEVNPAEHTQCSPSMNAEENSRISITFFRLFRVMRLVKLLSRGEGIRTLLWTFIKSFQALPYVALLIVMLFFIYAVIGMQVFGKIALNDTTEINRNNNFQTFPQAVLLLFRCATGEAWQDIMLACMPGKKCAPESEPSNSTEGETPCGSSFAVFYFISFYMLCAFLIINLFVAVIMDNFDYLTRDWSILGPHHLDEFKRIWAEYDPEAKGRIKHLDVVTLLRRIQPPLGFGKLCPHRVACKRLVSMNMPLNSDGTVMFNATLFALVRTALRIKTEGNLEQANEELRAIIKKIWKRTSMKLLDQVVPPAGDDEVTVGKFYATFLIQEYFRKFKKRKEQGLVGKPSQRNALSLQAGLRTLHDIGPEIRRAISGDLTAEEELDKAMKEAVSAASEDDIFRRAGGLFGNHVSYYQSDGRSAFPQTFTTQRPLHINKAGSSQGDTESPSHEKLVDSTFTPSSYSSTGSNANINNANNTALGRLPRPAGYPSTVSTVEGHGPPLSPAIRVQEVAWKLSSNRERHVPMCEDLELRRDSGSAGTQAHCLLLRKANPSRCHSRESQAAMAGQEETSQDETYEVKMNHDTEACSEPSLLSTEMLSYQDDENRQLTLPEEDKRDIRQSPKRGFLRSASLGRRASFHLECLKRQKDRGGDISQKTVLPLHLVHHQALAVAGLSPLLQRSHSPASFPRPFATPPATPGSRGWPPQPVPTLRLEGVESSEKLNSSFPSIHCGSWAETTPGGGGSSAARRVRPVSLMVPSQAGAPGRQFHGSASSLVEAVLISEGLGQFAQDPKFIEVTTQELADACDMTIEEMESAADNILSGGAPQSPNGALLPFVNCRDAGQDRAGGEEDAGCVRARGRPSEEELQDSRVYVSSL

[9] = target: native mouse Cav1.2 L-type calcium channel in cardiac myocytes (mouse (endogenous in cardiac myocytes)) (UniProt Q01815); remark: listed apart in the source
[10] = target: native mouse Cav1.2 L-type calcium channel in cardiac myocytes (mouse (endogenous in cardiac myocytes)) (UniProt Q01815); remark: listed apart in the source

## COc1ccc([C@@H]2Sc3ccccc3N(CCN(C)C)C(=O)[C@@H]2OC(C)=O)cc1 [Diltiazem]
[1]
  selectivity between Cav1.2 and Cav1.3: without significant selectivity

## COc1ccc(CCN(C)CCCC(C#N)(c2ccc(OC)c(OC)c2)C(C)C)cc1OC (stereo not drawn) [Verapamil]
[1]
  selectivity between Cav1.2 and Cav1.3: without significant selectivity

## COC(=O)C1=C(C)NC(C)=C(C(=O)OC)C1c1ccccc1[N+](=O)[O-] [nifedipine, reference compound]
[2]
  effect on pacemaker activity of SAN myocytes: robustly slows pacemaker activity
[3]
  block of residual ICaL (Cav1.3-mediated): totally blocked

## PTAMWP [L-calchin, short peptide between two Prolines at position 42 and 47 (PTAMWP) of Cas and FS2]
[4]
  reduction of ICav1.2: ≈ 30%
[5]
  IC50: ~5 µM
[6]
  effect on peak systolic pressure: reducing peak systolic pressure
[6]; ex vivo
  effect on heart rate: had no effect on heart rate

B1: calciseptine, synthetized analog (Latoxan L8109) (peptide)
chain: RICYIHKASLPRATKTCVENTCYKMFIRTQREYISERGCGCPTAMWPYQTECCKGDRCNK
[7]
  reduction of total ICaL (I (Cav1.2)+I (Cav1.3)) in wild-type mouse SAN myocytes, voltage clamp, 1 µM Cas: 45%
[8]
  IC50 of inhibition of I (Cav1.2), whole-cell patch clamp on transfected HEK-293T cells (holding potential −60 mV, test 0 mV), dose-effect relationship: 0.092 µM
  inhibition of I (Cav1.2) in averaged current-to-voltage relationships, 300 nM Cas, membrane voltages from −20 mV to +30 mV, transfected HEK-293T cells: 60%
  percent inhibition of I (Cav1.2) in transfected HEK-293T cells, one-step protocol (−60 mV to 0 mV), Cas 100 nM to 1 µM (37% at 100 nM, 70% at 300 nM, 80% at 1 µM): 80%
[9]
  degree of inhibition of ICaL by 300 nM Cas, step to 0 mV from −60 mV, stimulation at 0.2 Hz: 62%
  degree of inhibition of ICaL by 300 nM Cas, step to 0 mV from −60 mV, stimulation at 1 Hz: 63%
  degree of inhibition of ICaL by 300 nM Cas, step to 0 mV from −60 mV, stimulation at 5 Hz: 58%
  percent block of Cav1.2-mediated ICaL in Cav1.3−/− SAN myocytes, 300 nM Cas, step to 0 mV from a holding potential of −40 mV: 68%
  percent block of Cav1.2-mediated ICaL in Cav1.3−/− SAN myocytes, 300 nM Cas, step to 0 mV from a holding potential of −60 mV: 67%

## PTAMWP [L-calchin]
[10]
  reduction of I (Cav1.2) in dissociated mouse ventricular myocytes by synthetic L-calchin (preliminary experiments; concentration not stated): 30%

— article PMC10762068, “Selective blockade of Cav1.2 (α1C) versus Cav1.3 (α1D) L-type calcium channels by the black mamba toxin calciseptine” (Nature Communications, 2024)
